Results published in article doi:10.1101/2023.04.27.535981, “Development of constrained peptide inhibitors targeting an oncogenic E3 ubiquitin ligase” (bioRxiv, 2023).
Square brackets hold non-standard residues; d marks the D form. Ends that are not written are not given here. pT = C[C@@H](OP(=O)(O)O)[C@H](N)C(=O)O; Ahx = NCCCCCC(=O)O

Biological target: T1, Cks1-Skp2-Skp1 complex (GST-Skp2-Skp1-His-Cks1) (human | , UniProt Q13309 1-424; P63208 1-163; P61024 1-79)
T1 construct: Skp2, human; GST-Skp2 fusion from a dicistronic pGEX 4T1 plasmid with Skp1; Skp1, human; second cistron of the pGEX 4T1 GST-Skp2/Skp1 plasmid; Cks1, full length (1-79); The design was based on PDB 2AST, whose constructs may differ; also called Skp1-Skp2-Cks1 complex; Skp2-Skp1-Cks1 complex; source: E. coli C41; GST-Skp2-Skp1 (glutathione Sepharose, SEC) and His-Cks1 (Ni-NTA, SEC) purified, mixed …
Assay: fluorescence polarisation; direct FP; protein serially diluted 1:2 (12 points, triplicate) and mixed with 20 nM TAMRA-labelled peptide; SEC buffer (20 mM Tris-HCl pH 7.5, 150 mM NaCl, 1 mM DTT) with 0.01 % Tween-20; 30 min at room temperature
Conditions: both partners purified

T1 sequence (Q13309 whole entry, chain 1 of 3, the tested form may be a part): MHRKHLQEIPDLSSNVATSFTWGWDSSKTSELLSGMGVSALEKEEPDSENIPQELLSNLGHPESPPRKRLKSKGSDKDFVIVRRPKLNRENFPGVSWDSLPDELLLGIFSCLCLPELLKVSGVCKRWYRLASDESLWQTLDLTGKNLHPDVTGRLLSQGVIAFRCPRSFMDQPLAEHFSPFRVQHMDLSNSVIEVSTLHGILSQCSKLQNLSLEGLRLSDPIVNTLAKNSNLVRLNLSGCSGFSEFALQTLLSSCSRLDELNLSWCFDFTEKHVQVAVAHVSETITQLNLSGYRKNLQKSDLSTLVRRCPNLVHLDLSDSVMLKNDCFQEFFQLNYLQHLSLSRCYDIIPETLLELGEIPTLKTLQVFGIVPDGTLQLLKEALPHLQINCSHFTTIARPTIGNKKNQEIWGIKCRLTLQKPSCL
T1 sequence (P63208 whole entry, chain 2 of 3, the tested form may be a part): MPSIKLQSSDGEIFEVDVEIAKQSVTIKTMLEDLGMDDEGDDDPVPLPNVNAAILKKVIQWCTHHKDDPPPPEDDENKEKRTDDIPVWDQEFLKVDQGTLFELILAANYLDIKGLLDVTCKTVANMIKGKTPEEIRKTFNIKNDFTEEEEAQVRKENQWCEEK
T1 sequence (P61024 whole entry, chain 3 of 3, the tested form may be a part): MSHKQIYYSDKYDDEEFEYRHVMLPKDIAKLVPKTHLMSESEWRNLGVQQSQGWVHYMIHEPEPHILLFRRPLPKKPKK

- Kd: 2780 ± 190 nM
B1: TAMRA-labelled 10-residue phosphorylated p27 peptide (TAMRA-Ahx-AGSVEQT(phos)PKK) (peptide)
peptide: {TAMRA-Ahx}-AGSVEQ[pT]PKK
notes: p27, amino acids 181-190; also called TAMRA-labelled p27 peptide; TAMRA-labelled unconstrained p27 peptide; source: synthetic peptide
